Experimental findings from patent US20160159862A1 (PROTAGONIST THERAPEUTICS, published 2016) are described below.

Bridge positions count the residues as written; N and C are the ends. Square brackets hold non-standard residues; d marks the D form. Bip = N[C@@H](Cc1ccc(-c2ccccc2)cc1)C(=O)O; 1Nal = N[C@@H](Cc1cccc2ccccc12)C(=O)O; 2Nal = N[C@@H](Cc1ccc2ccccc2c1)C(=O)O; NMeR = CN[C@@H](CCCNC(=N)N)C(=O)O; Tic = O=C(O)[C@@H]1Cc2ccccc2CN1; β3hE = N[C@@H](CCC(=O)O)CC(=O)O; NMeK = CN[C@@H](CCCCN)C(=O)O; Pen = CC(C)(S)[C@H](N)C(=O)O; dNMeK = CN[C@H](CCCCN)C(=O)O Some results are limits rather than exact numbers.

The target of test [1] is α4β1 (R&D Systems #5668-A4) (UniProt P13612). The experiment in a line: α4β1-VCAM competition ELISA.
For test [2], the target named is rh integrin α4β7 (R&D Systems #5397-A30) (human) (UniProt P13612). In words: α4β7-MAdCAM competition ELISA. Background: An ELISA detects its analyte on a solid surface through an enzyme-linked reagent.
For test [3], the target named is T1, α4β7 integrin on human cells (human, UniProt P13612 34-1032; P26010 20-798). In words: cell-based or functional assay.
Test [4] has as its target T2, α4β7 integrin on mouse TK1 cells (mouse, UniProt Q00651 41-1039; P26011 20-806). The experiment in a line: cell-based or functional assay.
Test [5] concerns the target T1, α4β7 integrin on human cells. In words: cell-based or functional assay. The source holds these as a separate data set.
Test [6] concerns the target T2, α4β7 integrin on mouse TK1 cells. The experiment in a line: cell-based or functional assay. This is another data set of the same source.
Test [7] deals with α4β1 integrin on human cells (human, UniProt P13612 34-1032; P05556 21-798). The experiment in a line: cell-based or functional assay.

T2 sequence (Q00651 41-1039, chain 1 of 2): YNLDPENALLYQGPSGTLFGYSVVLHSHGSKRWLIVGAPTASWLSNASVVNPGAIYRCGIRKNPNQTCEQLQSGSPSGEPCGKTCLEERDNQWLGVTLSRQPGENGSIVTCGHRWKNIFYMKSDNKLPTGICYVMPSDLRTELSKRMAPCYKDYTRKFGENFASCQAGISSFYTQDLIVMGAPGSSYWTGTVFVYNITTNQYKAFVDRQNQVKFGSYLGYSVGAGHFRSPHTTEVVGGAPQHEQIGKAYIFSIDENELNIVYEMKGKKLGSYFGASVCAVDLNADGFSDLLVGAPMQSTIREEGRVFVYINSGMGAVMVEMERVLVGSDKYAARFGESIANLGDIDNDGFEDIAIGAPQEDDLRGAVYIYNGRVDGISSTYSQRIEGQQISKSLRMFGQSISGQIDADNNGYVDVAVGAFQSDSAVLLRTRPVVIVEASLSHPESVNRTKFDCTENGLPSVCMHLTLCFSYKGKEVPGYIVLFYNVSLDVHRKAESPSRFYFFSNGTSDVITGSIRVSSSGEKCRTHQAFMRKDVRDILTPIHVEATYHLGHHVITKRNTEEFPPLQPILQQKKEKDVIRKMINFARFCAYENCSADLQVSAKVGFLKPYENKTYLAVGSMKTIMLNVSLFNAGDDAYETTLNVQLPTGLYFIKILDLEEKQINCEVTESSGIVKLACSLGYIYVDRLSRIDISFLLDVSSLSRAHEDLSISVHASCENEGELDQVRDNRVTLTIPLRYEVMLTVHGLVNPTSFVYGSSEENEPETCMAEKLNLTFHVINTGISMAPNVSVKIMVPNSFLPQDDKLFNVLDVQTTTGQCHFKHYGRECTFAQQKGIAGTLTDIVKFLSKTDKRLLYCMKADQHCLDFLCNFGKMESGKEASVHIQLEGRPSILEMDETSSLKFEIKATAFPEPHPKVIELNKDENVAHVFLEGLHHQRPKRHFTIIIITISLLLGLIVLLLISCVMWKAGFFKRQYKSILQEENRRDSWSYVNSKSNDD
T2 sequence (P26011 20-806, chain 2 of 2): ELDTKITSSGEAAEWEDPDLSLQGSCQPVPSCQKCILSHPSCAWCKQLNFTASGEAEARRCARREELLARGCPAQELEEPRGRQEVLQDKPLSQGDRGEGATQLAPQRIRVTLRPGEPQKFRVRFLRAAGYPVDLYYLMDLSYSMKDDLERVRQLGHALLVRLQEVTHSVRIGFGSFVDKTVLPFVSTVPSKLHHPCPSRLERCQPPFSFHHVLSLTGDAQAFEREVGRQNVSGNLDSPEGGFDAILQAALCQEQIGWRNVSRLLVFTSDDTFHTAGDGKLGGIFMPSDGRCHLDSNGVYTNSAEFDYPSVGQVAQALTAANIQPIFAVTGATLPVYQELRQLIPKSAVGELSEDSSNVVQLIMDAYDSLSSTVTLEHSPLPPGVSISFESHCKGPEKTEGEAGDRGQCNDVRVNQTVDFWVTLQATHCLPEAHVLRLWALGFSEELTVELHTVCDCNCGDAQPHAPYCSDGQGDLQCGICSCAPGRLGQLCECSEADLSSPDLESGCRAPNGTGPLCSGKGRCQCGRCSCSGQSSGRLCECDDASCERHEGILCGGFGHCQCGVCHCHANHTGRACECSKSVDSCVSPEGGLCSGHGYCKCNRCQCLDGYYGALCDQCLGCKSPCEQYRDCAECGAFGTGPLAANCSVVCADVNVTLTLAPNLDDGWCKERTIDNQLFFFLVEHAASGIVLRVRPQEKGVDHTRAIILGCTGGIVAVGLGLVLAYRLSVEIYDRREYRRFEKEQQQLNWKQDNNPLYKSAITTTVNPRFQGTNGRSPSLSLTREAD

The term IC50 denotes the concentration that gives 50% inhibition. Higher therefore signals weaker potency in that assay. Consider Ac-[Pen][NMeR]SDTL[Pen][1Nal][dE][dK]-NH2 (disulfide 1-7 (inferred); also: homodimer via DIG linker) [SEQ ID NO 32], for which the results for the IC50 in test [1] and in test [2] were over 100 nM and under 10 nM, respectively. Further, the “α4β7 cell (Hu) IC50” value in test [3] was over 10 nM.

On to Ac-[Pen][NMeR]SDTL[Pen][1Nal][dE][dNMeK]-NH2 (disulfide 1-7 (inferred); also: homodimer via DIG linker) [SEQ ID NO 38], for which the IC50 in test [1] was over 100 nM; in test [2] it was under 10 nM. In test [3], the “α4β7 cell (Hu) IC50” value is at most 10 nM.

On to Ac-[Pen][NMeR]SDTL[Pen][1Nal]E[dNMeK]-NH2 (disulfide 1-7 (inferred); also: homodimer via DIG linker) [SEQ ID NO 44], for which the IC50 in test [1] is over 100 nM; in test [2], under 10 nM. The “α4β7 cell (Hu) IC50” value in test [3] was at most 10 nM. Besides, the “α4β7 cell(Mu) IC50” value in test [4] was at most 10 nM.

Regarding Ac-[Pen][NMeR]SDTL[Pen]WE(OMe)[dK]-NH2 (disulfide 1-7 (inferred); also: homodimer linked by DIG) [SEQ ID NO 86], the “α4β7 cell (Hu) IC50” value in test [3] is at most 10 nM. In test [4], the “α4β7 cell(Mu) IC50” value is at most 10 nM.

B1: SEQ ID NO 18 (peptide)
peptide: Ac-[Pen][NMeR]SDTL[Pen][1Nal]E[dNMeK]-NH2
modifications: disulfide 1-7
SMILES: CC(=O)N[C@@H]1C(=O)N(C)[C@@H](CCCNC(=N)N)C(=O)N[C@@H](CO)C(=O)N[C@@H](CC(=O)O)C(=O)N[C@@H]([C@@H](C)O)C(=O)N[C@@H](CC(C)C)C(=O)N[C@H](C(=O)N[C@@H](Cc2cccc3ccccc23)C(=O)N[C@@H](CCC(=O)O)C(=O)N(C)[C@H](CCCCN)C(N)=O)C(C)(C)SSC1(C)C
B1: the IC50 was over 500 nM in test [1] and over 10 nM in test [2].

Consider Ac-[Pen][NMeR]SDTL[Pen][2Nal]Y[dK]-NH2 (disulfide 1-7 (inferred); also: homodimer via DIG) [SEQ ID NO 23], for which the IC50 in test [1] is over 100 nM. For the same molecule, in test [3], the “α4β7 cell (Hu) IC50” value is at most 10 nM.

Take Ac-[Pen][NMeR]SDTL[Pen][2Nal]E[dK]-NH2 (disulfide 1-7 (inferred); also: homodimer via DIG) [SEQ ID NO 212]: the IC50 was found to be 70 nM in test [1] and 2 nM in test [2]. In addition, the “Cell Adhesion α4β7 IC50” value in test [5] stood at 2.5 nM. In addition, the “Cell Adhesion α4β7 Mouse IC50” value in test [6] was found to be 2.5 nM. The “Cell Adhesion α4β1 IC50” value in test [7] was over 100000 nM.

Ac-[Pen][NMeR]SDTL[Pen][2Nal][β3hE][dK]-NH2 (disulfide 1-7 (inferred); also: homodimer via DIG) [SEQ ID NO 137]: the IC50 is over 1000 nM in test [1] and under 10 nM in test [2]. Further, the “α4β7 cell (Hu) IC50” value in test [3] is at most 10 nM.

Ac-[Pen][NMeR]SDTL[Pen][Tic][β3hE]-NH2 (disulfide 1-7 (inferred)) [SEQ ID NO 154]: the IC50 in test [1] was over 1000 nM. Further, the “α4β7 cell (Hu) IC50” value in test [3] is over 100 nM. In addition, the “α4β7 cell(Mu) IC50” value in test [4] is over 1000 nM.

Consider Ac-[Pen][NMeR]SDTL[Pen][1Nal]E[dK]-NH2 (disulfide 1-7 (inferred); also: homodimer via DIG) [SEQ ID NO 24], for which the IC50 was over 100 nM in test [1] and under 10 nM in test [2]. In addition, the “α4β7 cell (Hu) IC50” value in test [3] was at most 10 nM.

Molecule Ac-[Pen][NMeR]SDTL[Pen][2Nal][b‑H‑E]-NH2 (disulfide 1-7 (inferred)) [SEQ ID NO 155] had an IC50 in test [1] of over 1000 nM. In addition, in test [3], the “α4β7 cell (Hu) IC50” value was over 25 nM. The “α4β7 cell(Mu) IC50” value in test [4] is over 25 nM.

As to Ac-[Pen][NMeR]SDTL[Pen][2Nal]E[dK]-NH2 (disulfide 1-7 (inferred)) [SEQ ID NO 210], in test [1], the IC50 amounted to 200 nM. This molecule also had an IC50 in test [2] of 11 nM. In test [5], the “Cell Adhesion PBMC IC50” value was 517 nM and the “Cell Adhesion α4β7 IC50” value was 40 nM. Moreover, in test [6], the “Cell Adhesion α4β7 Mouse IC50” value is 60 nM. Also, the “Cell Adhesion α4β1 IC50” value in test [7] was over 100000 nM.

As for Ac-[Pen][NMeR]SDTL[Pen][2Nal]E[dNMeK]-NH2 (disulfide 1-7 (inferred); also: homodimer via DIG linker) [SEQ ID NO 41], the IC50 was over 100 nM in test [1] and under 10 nM in test [2]. Also, the “α4β7 cell (Hu) IC50” value in test [3] was at most 10 nM.

Ac-[Pen][NMeR]SDTL[Pen][Bip][b‑H‑E][NMeK]-NH2 (disulfide 1-7 (inferred); also: homodimer via DIG) [SEQ ID NO 150]: the IC50 was over 1000 nM in test [1] and under 10 nM in test [2]. The “α4β7 cell (Hu) IC50” value in test [3] was at most 10 nM. In test [4], the “α4β7 cell(Mu) IC50” value is at most 10 nM.

Turning to Ac-[Pen][NMeR]SDTL[Pen][1Nal][β3hE][NMeK]-NH2 (disulfide 1-7 (inferred); also: homodimer via DIG) [SEQ ID NO 142], the IC50 was over 500 nM in test [1] and under 10 nM in test [2]. For the same molecule, in test [3], the “PBMC IC50” value is over 50 nM. Besides, the “α4β7 cell (Hu) IC50” value in test [3] is at most 10 nM.

For Ac-[Pen][NMeR]SDTL[Pen][Bip]E[dK]-NH2 (disulfide 1-7 (inferred); also: homodimer via DIG) [SEQ ID NO 134], the figures for the IC50 in test [1] and in test [2] were over 100 nM and under 10 nM, respectively. The “α4β7 cell (Hu) IC50” value in test [3] was at most 10 nM.

Take Ac-[Pen][NMeR]SDTL[Pen][2Nal][dE][dNMeK]-NH2 (disulfide 1-7 (inferred)) [SEQ ID NO 13]: the IC50 in test [2] was over 10 nM. Moreover, the “α4β7 cell (Hu) IC50” value in test [3] is over 100 nM.
